Measured values as given in patent publication US8247168B2, “Regulation of gene expression by protein methylation” (University of Southern California, priority 1998, dated 2012).
Marks after values point to notes of the source that are not given here.

Assays:
[1] = test system: androgen receptor, estrogen receptor, and thyroid hormone receptor; test: Reporter gene activation by hormone-activated nuclear receptors in transiently transfected CV-1 cells; assay type: cell-based; settings: co-expression of GRIP1 with NR, CV-1 cells, hormone present (lane d)
Protocol: (A) Transient transfection assays with CV-1 cells were performed as in FIG. 5 with 0.5 μg of GK1 reporter gene and 0.5 μg of each of the indicated vectors. (B) CV-1 cells were transiently transfected as in FIG. 5 with the following vectors, as indicated: 0.5 μg of nuclear receptor expression vector pSVAR0 (Brinkmann, A. O. et al. (1989) J. Steroid Biochem. Molec. Biol. 34:307) expressing AR, pHE0 (Green, S. et al. (1988) Nucleic Acids Res. 16:369) expressing ER, or pCMX.hTRβ1 (Feng, W. et al. (1998) Science 280:1747) expressing TR; 0.5 μg of a luciferase reporter gene with an appropriate promoter, MMTV promoter for AR, or MMTV promoter with the native glucocorticoid response elements replaced by a single estrogen response element for ER or palindromic thyroid hormone response element for TR (Umesono, K. and R. M. Evans (1989) Cell 57:1139); 0.5 μg of pSG5.HA-GRIP1; and 0.5 μg of pSG5.HA-CARM1 or pSG5.HA-CARM1 (VLD mutant). Transfection efficiency was monitored by using βgalactosidase activity expressed from 0.1 μg of co-transfected pCMV-βgal vector (Hong, H. et al. (1996) Proc. Natl. Acad. Sci. USA 93:4948-4952) as an internal control. After transfection, cells were grown in charcoal-treated serum; where indicated 20 nM hormone (H), i.e. dihydrotestosterone for AR, estradiol for ER, or triiodothyronine for TR, was included during the last 40 h of culture. […]

[2] = test system: hnRNPA1; test: Methylation of hnRNP A1, SDS-PAGE and fluorography (FIG. 8C); assay type: biochemical, human; settings: 0.083 mg/ml hnRNP-A1
Protocol: CARM1 and PRMT1 have different protein methyltransferase substrate specificities. CARM1 methylates histone H3, whereas PRMT1 methylates histone H4. […] (A,B) Calf thymus histones (Boehringer Mannheim) were incubated for 30 min at 30° C. in 32.5 μl reactions containing 20 mM Tris-Cl, 0.2 M NaCl, 4 mM EDTA, pH 8.0, 0.32 mg/ml individual histone (2a, 2b, 3, or 4) or 1.3 mg/ml mixed histone (M), 0.037 mg/ml GST-CARM1 or GST-PRMT1, and 7 μM S-adenosyl-L-[methyl-^3H]methionine (specific activity of 14.7 Ci/mmol). Reactions were stopped by addition of SDS-NuPAGE sample buffer (Novex), and 40% of each stopped reaction was then subjected to SDS-PAGE in 4-12% NuPAGE Bis-Tris gradient gels (Novex) using the Na-MES running buffer. Gels were stained with Coomassie Blue R-250 (A), and then subjected to fluorography (Chamberlin, M. (1978) Anal. Biochem. 98:132) for 12 h at −70° C. on sensitized Kodak XAR-5 film (B). Molecular weight markers (MW) are shown at left. Concentrations of GST fusion proteins were determined in comparison with bovine serum albumin standards (Sigma) by SDS polyacrylamide gel electrophoresis and Coomassie Blue staining; it was assumed that bovine serum albumin stained twice as intensely as most other proteins. Concentrations of histones and hnRNP A1 were determined by the method of Lowry (Lowry, O. H. et al. (1951) J. Biol. Chem. 193:265). […]

[3] = test system: R1 peptide SEQ ID NO: 4 […]-NH2; test: Methyltransferase reaction with R1 peptide substrate, reversed-phase HPLC separation; assay type: biochemical; settings: substrate R1 peptide (120 μM); enzyme 0.03-0.05 mg/ml
[4] = target: T1, K1 peptide SEQ ID NO: 5 […]-NH2 (Mus musculus, UniProt Q9WVG6, W314R); test: Methyltransferase reaction with K1 peptide substrate, reversed-phase HPLC separation; assay type: biochemical; settings: substrate K1 peptide (120 μM); enzyme 0.03-0.05 mg/ml
T1 construct: A 3.2-kb partial CARM1 cDNA clone with an open reading frame of 606 amino acids (CARM1(3-608)); made in house; host or cells: E. coli strain BL21
T1 sequence (Q9WVG6 3-608 W314R): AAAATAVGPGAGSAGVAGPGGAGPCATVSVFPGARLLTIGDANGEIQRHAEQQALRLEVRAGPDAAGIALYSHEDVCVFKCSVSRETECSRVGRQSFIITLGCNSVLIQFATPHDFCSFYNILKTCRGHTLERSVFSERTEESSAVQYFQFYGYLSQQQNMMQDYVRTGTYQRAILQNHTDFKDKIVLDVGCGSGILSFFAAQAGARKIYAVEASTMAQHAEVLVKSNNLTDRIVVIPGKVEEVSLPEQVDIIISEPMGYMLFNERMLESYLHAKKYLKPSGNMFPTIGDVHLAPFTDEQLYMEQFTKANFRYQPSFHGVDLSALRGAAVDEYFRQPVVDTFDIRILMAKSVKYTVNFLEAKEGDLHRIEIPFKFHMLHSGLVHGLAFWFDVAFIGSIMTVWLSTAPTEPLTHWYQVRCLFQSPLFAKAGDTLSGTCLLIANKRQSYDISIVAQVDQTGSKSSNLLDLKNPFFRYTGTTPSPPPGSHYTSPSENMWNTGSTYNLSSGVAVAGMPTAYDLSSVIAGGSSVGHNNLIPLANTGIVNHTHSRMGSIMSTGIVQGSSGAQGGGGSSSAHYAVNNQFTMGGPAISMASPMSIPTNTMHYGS

[5] = test system: mixed histones (calf thymus); test: Methyltransferase reaction with mixed histones, reversed-phase HPLC separation; assay type: biochemical; settings: substrate mixed histones (2.7 mg/ml), enzyme 0.03-0.05 mg/ml

For “GRIP1: p160 nuclear receptor coactivator”, the “enhancement of reporter gene expression by the hormone-activated NR” value [1] was 2 to 27 fold.

For “PRMT1: related mammalian protein arginine methyltransferase [reference compound]”, the “methylation of hnRNPA1” value [2] was “good substrate”.

B1: GST-CARM1: glutathione S-transferase fusion protein of CARM1 produced in E. coli (protein)
chain: T1 sequence (Q9WVG6 3-608 W314R)
modifications: left off: a dimerising Fc or GST
notes: glutathione S-transferase fusion protein of CARM1 produced in E. coli
With B1 the Methyltransferase specific activity [3] was 21.6-54.5^a pmol/min/mg, the Methyltransferase specific activity [4] was 0.7 pmol/min/mg and the Methyltransferase specific activity [5] was 971 pmol/min/mg.
